The values below come from article PMC3469465, “Muscle-Specific Splicing Factors ASD-2 and SUP-12 Cooperatively Switch Alternative Pre-mRNA Processing Patterns of the ADF/Cofilin Gene in Caenorhabditis elegans”.

In data set [1] the target is T1, FLAG-SUP-12 (Caenorhabditis elegans, UniProt O45189 1-248).
T1 sequence: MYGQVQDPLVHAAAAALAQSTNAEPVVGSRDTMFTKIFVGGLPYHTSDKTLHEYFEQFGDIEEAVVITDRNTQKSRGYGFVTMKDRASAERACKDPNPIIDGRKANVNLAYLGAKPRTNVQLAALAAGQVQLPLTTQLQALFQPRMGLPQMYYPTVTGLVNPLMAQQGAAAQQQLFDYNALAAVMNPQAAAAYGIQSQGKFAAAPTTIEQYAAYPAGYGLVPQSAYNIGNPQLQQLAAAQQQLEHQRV
The data set can be described thus: EMSA; 20 mM HEPES-KOH pH 7.9, 150 mM KCl, 5% glycerol (EMSA only), 1% Triton X-100, 1 mM DTT, 0.1 mM PMSF, 100 ng/ul E. coli tRNA, 50 ng/ul BSA, 30 min, 20 C. The settings on record: protein: recombinant; tags: FLAG; label: 32P (alpha-32P UTP, internal). On the technique in general: Mobility shift assays separate free from complexed probe on a gel.

The target of data set [2] is T1, FLAG-SUP-12. The data set can be described thus: EMSA; similar extent to WT; 20 mM HEPES-KOH pH 7.9, 150 mM KCl, 5% glycerol (EMSA only), 1% Triton X-100, 1 mM DTT, 0.1 mM PMSF, 100 ng/ul E. coli tRNA, 50 ng/ul BSA, 30 min, 20 C. The settings on record: protein: recombinant; tags: FLAG; label: 32P (alpha-32P UTP, internal).

As for GGGAGACUAACCUAACCUAACCUAUGUGUGCCUGUUUUCUAG (ssRNA) [unc-60 intron 1A WT EMSA probe], the binding result in the data set with FLAG-SUP-12 [1] is “binds”.
On to GGGAGACAAACCAAACCAAACCUAUGUGUGCCUGUUUUCUAG (ssRNA) [unc-60 intron 1A M1 EMSA probe], for which the binding result with FLAG-SUP-12 [2] is recorded as “binds”.
